# IntAct's records for PubMed 31515488
# B1: U3 small nucleolar RNA-associated protein 14 homolog C (Homo sapiens), Q5TAP6 (parent)
# chain: MNVNQVAENLALSHQEELVDLPKNYPLSENEDEGDSDGERKHQKLLEAIISLDGKNRRKLAERSEASLKVSEFSVSSEGSGEKLGLADLLEPVKTSSSLATVKKQLNRVKSKKVVELPLNKEKIEQIHREVAFSKTSQVLSKWDPIILKNQQAEQLVFPLGKEQPAIAPIEHALSGWKARTPLEQEIFNLLHKNKQPVTDPLLTPMEKASLQAMSLEEAKMHRAELQRARALQSYYEAKARKEKKIKSKKYHKVVKKGKAKKALKEFEQLQKVNPTVALEEMEKIENARMMERMSLKHQNSGKWAKSKAIMAKYDLEARQAMQEQLAKNKELTQKLQVASESEEEEGGTEVEELLVPHVANEVQMNVDGPNPWMFRSCTSDTKEAATQEDPEQVPELAAHEVSASEAEERPVAEEEILLREFEERQSLRKRSELNQDAEPASSQETKDSSSQEVLSELRALSQKLKEKHQSRKQKASSEGTVPQVQREEPAPEEAEPLLLQRSERVQTLEELEELGKEDCFQNKELPRPVLEGQQSERTPNNRPDAPKEKKEKEQLINLQNFLTTQSPSVRSLAVPTIIEELEDEEERDQRQMIKEAFAGDDVIRDFLKEKREAVEASKPKDVDLTLPGWGEWGGVGLKPSAKKRRQFLIKAPEGPPRKDKNLPNVIISEKRNIHAAAHQVQVLPYPFTHHRQFERTIQTPIGSTWNTQRAFQKLTTPKVVTKPGHIIKPIKAEDVGYQSSSRSDLPVIQRNPKRITTRHNKEEKL
# B2: mRNA-decapping enzyme 1A (Homo sapiens), Q9NPI6 (parent)
# chain: MEALSRAGQEMSLAALKQHDPYITSIADLTGQVALYTFCPKANQWEKTDIEGTLFVYRRSASPYHGFTIVNRLNMHNLVEPVNKDLEFQLHEPFLLYRNASLSIYSIWFYDKNDCHRIAKLMADVVEEETRRSQQAARDKQSPSQANGCSDHRPIDILEMLSRAKDEYERNQMGDSNISSPGLQPSTQLSNLGSTETLEEMPSGSQDKSAPSGHKHLTVEELFGTSLPKEQPAVVGLDSEEMERLPGDASQKEPNSFLPFPFEQLGGAPQSETLGVPSAAHHSVQPEITTPVLITPASITQSNEKHAPTYTIPLSPVLSPTLPAEAPTAQVPPSLPRNSTMMQAVKTTPRQRSPLLNQPVPELSHASLIANQSPFRAPLNVTNTAGTSLPSVDLLQKLRLTPQHDQIQTQPLGKGAMVASFSPAAGQLATPESFIEPPSKTAAARVAASASLSNMVLAPLQSMQQNQDPEVFVQPKVLSSAIPVAGAPLVTATTTAVSSVLLAPSVFQQTVTRSSDLERKASSPSPLTIGTPESQRKPSIILSKSQLQDTLIHLIKNDSSFLSTLHEVYLQVLTKNKDNHNL
# B3: Protein N-lysine methyltransferase METTL21A (Homo sapiens), Q8WXB1 (parent)
# chain: MALVPYEETTEFGLQKFHKPLATFSFANHTIQIRQDWRHLGVAAVVWDAAIVLSTYLEMGAVELRGRSAVELGAGTGLVGIVAALLGAHVTITDRKVALEFLKSNVQANLPPHIQTKTVVKELTWGQNLGSFSPGEFDLILGADIIYLEETFTDLLQTLEHLCSNHSVILLACRIRYERDNNFLAMLERQFTVRKVHYDPEKDVHIYEAQKRNQKEDL
# B4: Myomegalin (Homo sapiens), Q5VU43-2 (parent)
# chain: MKEICRICARELCGNQRRWIFHTASKLNLQVLLSHVLGKDVPRDGKAEFACSKCAFMLDRIYRFDTVIARIEALSIERLQKLLLEKDRLKFCIASMYRKNNDDSGAEIKAGNGTVDMSVLPDARYSALLQEDFAYSGFECWVENEDQIQEPHSCHGSEGPGNRPRRCRGCAALRVADSDYEAICKVPRKVARSISCGPSSRWSTSICTEEPALSEVGPPDLASTKVPPDGESMEEETPGSSVESLDASVQASPPQQKDEETERSAKELGKCDCCSDDQAPQHGCNHKLELALSMIKGLDYKPIQSPRGSRLPIPVKSSLPGAKPGPSMTDGVSSGFLNRSLKPLYKTPVSYPLELSDLQELWDDLCEDYLPLRVQPMTEELLKQQKLNSHETTITQQSVSDSHLAELQEKIQQTEATNKILQEKLNEMSYELKCAQESSQKQDGTIQNLKETLKSRERETEELYQVIEGQNDTMAKLREMLHQSQLGQLHSSEGTSPAQQQVALLDLQSALFCSQLEIQKLQRVVRQKERQLADAKQCVQFVEAAAHESEQQKEASWKHNQELRKALQQLQEELQNKSQQLRAWEAEKYNEIRTQEQNIQHLNHSLSHKEQLLQEFRELLQYRDNSDKTLEANEMLLEKLRQRIHDKAVALERAIDEKFSALEEKEKELRQLRLAVRERDHDLERLRDVLSSNEATMQSMESLLRAKGLEVEQLSTTCQNLQWLKEEMETKFSRWQKEQESIIQQLQTSLHDRNKEVEDLSATLLCKLGPGQSEIAEELCQRLQRKERMLQDLLSDRNKQVLEHEMEIQGLLQSVSTREQESQAAAEKLVQALMERNSELQALRQYLGGRDSLMSQAPISNQQAEVTPTGRLGKQTDQGSMQIPSRDDSTSLTAKEDVSIPRSTLGDLDTVAGLEKELSNAKEELELMAKKERESQMELSALQSMMAVQEEELQVQAADMESLTRNIQIKEDLIKDLQMQLVDPEDIPAMERLTQEVLLLREKVASVESQGQEISGNRRQQLLLMLEGLVDERSRLNEALQAERQLYSSLVKFHAHPESSERDRTLQVELEGAQVLRSRLEEVLGRSLERLNRLETLAAIGGAAAGDDTEDTSTEFTDSIEEEAAHHSHQQL
# B5: F-BAR domain only protein 1 (Homo sapiens), O14526 (parent)
# chain: MSYFGEHFWGEKNHGFEVLYHSVKQGPISTKELADFIRERATIEETYSKAMAKLSKLASNGTPMGTFAPLWEVFRVSSDKLALCHLELTRKLQDLIKDVLRYGEEQLKTHKKCKEEVVSTLDAVQVLSGVSQLLPKSRENYLNRCMDQERLRRESTSQKEMDKAETKTKKAAESLRRSVEKYNSARADFEQKMLDSALRFQAMEETHLRHMKALLGSYAHSVEDTHVQIGQVHEEFKQNIENVSVEMLLRKFAESKGTGREKPGPLDFEAYSAAALQEAMKRLRGAKAFRLPGLSRREREPEPPAAVDFLEPDSGTCPEVDEEGFTVRPDVTQNSTAEPSRFSSSDSDFDDEEPRKFYVHIKPAPARAPACSPEAAAAQLRATAGSLILPPGPGGTMKRHSSRDAAGKPQRPRSAPRTSSCAERLQSEEQVSKNLFGPPLESAFDHEDFTGSSSLGFTSSPSPFSSSSPENVEDSGLDSPSHAAPGPSPDSWVPRPGTPQSPPSCRAPPPEARGIRAPPLPDSPQPLASSPGPWGLEALAGGDLMPAPADPTAREGLAAPPRRLRSRKVSCPLTRSNGDLSRSLSPSPLGSSAASTALERPSFLSQTGHGVSRGPSPVVLGSQDALPIATAFTEYVHAYFRGHSPSCLARVTGELTMTFPAGIVRVFSGTPPPPVLSFRLVHTTAIEHFQPNADLLFSDPSQSDPETKDFWLNMAALTEALQRQAEQNPTASYYNVVLLRYQFSRPGPQSVPLQLSAHWQCGATLTQVSVEYGYRPGATAVPTPLTNVQILLPVGEPVTNVRLQPAATWNLEEKRLTWRLPDVSEAGGSGRLSASWEPLSGPSTPSPVAAQFTSEGTTLSGVDLELVGSGYRMSLVKRRFATGMYLVSC
# partner: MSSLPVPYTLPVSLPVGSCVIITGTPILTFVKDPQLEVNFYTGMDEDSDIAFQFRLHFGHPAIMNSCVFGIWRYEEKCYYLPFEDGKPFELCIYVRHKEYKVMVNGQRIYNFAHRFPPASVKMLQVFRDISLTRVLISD
# B6: Notch homolog 2 N-terminal-like protein A (Homo sapiens), Q7Z3S9 (parent)
# chain: MCVTYHNGTGYCKCPEGFLGEYCQHRDPCEKNRCQNGGTCVAQAMLGKATCRCASGFTGEDCQYSTSHPCFVSRPCLNGGTCHMLSRDTYECTCQVGFTGKECQWTDACLSHPCANGSTCTTVANQFSCKCLTGFTGQKCETDVNECDIPGHCQHGGTCLNLPGSYQCQCLQGFTGQYCDSLYVPCAPSPCVNGGTCRQTGDFTFECNCLPETVRRGTELWERDREVWNGKEHDEN
# partner: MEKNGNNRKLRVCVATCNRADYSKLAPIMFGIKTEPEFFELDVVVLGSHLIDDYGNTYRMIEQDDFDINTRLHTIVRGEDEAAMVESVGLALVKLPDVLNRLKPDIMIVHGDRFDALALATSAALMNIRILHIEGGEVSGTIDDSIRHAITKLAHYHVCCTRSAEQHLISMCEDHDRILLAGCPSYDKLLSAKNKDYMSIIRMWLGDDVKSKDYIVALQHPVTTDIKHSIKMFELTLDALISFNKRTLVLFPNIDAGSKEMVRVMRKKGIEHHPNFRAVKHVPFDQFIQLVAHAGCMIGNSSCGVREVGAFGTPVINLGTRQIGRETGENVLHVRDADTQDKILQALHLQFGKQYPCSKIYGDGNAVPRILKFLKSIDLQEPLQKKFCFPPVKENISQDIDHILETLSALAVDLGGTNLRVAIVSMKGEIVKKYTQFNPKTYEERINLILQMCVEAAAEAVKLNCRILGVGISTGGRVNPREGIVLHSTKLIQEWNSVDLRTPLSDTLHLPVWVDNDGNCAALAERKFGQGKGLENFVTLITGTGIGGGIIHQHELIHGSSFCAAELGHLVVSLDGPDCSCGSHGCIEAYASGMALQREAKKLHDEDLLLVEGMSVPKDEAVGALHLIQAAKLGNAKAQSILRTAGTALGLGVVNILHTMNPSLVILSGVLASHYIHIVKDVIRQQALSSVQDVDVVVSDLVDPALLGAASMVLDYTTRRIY
# B7: E3 ubiquitin-protein ligase TRIM32 (Homo sapiens), Q13049 (parent)
# chain: MAAAAASHLNLDALREVLECPICMESFTEEQLRPKLLHCGHTICRQCLEKLLASSINGVRCPFCSKITRITSLTQLTDNLTVLKIIDTAGLSEAVGLLMCRSCGRRLPRQFCRSCGLVLCEPCREADHQPPGHCTLPVKEAAEERRRDFGEKLTRLRELMGELQRRKAALEGVSKDLQARYKAVLQEYGHEERRVQDELARSRKFFTGSLAEVEKSNSQVVEEQSYLLNIAEVQAVSRCDYFLAKIKQADVALLEETADEEEPELTASLPRELTLQDVELLKVGHVGPLQIGQAVKKPRTVNVEDSWAMEATASAASTSVTFREMDMSPEEVVASPRASPAKQRGPEAASNIQQCLFLKKMGAKGSTPGMFNLPVSLYVTSQGEVLVADRGNYRIQVFTRKGFLKEIRRSPSGIDSFVLSFLGADLPNLTPLSVAMNCQGLIGVTDSYDNSLKVYTLDGHCVACHRSQLSKPWGITALPSGQFVVTDVEGGKLWCFTVDRGSGVVKYSCLCSAVRPKFVTCDAEGTVYFTQGLGLNLENRQNEHHLEGGFSIGSVGPDGQLGRQISHFFSENEDFRCIAGMCVDARGDLIVADSSRKEILHFPKGGGYSVLIREGLTCPVGIALTPKGQLLVLDCWDHCIKIYSYHLRRYSTP
# partner: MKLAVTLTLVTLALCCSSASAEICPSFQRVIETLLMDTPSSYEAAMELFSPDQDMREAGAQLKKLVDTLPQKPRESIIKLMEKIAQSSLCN
# Variants of: B1
# Conditions: with myome_human PDE4DIP
row,Variant,effect of a mutation on the interaction
1,A652T,with no effect
2,K247E,with no effect
3,R672H,with no effect

# Variants of: B2
# Conditions: with pnrc2_human PNRC2, Q9NPJ4
# Chain of pnrc2_human PNRC2, Q9NPJ4 (Q9NPJ4 whole entry): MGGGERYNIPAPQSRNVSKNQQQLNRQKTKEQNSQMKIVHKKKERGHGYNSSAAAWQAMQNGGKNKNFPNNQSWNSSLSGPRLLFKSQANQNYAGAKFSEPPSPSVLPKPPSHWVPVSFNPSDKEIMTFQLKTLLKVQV
row,Variant,effect of a mutation on the interaction
1,Q474H,with no effect
2,P332T,with no effect
3,A297G,with no effect

# Variants of: B3
# Conditions: with FAM200C
row,Variant,effect of a mutation on the interaction
1,A209P,disrupting interaction strength

# Variants of: B4
# Conditions: with prp31_human PRPF31, Q8WWY3
# Chain of prp31_human PRPF31, Q8WWY3 (Q8WWY3 whole entry): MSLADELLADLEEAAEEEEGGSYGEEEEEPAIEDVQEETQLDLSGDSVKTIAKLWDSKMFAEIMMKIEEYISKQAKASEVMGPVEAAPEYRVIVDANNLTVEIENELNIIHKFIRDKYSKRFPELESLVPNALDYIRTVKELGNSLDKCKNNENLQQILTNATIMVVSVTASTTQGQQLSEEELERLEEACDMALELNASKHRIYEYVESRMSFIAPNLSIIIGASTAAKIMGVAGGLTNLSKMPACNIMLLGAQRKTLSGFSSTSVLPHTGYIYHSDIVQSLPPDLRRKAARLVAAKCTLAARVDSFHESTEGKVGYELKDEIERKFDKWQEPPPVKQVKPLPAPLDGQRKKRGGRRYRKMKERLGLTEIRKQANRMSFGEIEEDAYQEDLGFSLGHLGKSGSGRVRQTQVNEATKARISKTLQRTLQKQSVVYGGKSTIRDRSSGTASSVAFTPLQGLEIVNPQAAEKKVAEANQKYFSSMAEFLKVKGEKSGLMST
row,Variant,effect of a mutation on the interaction
1,N28S,with no effect

# Variants of: B4
# Conditions: with sdcb1_human SDCBP
row,Variant,effect of a mutation on the interaction
1,N28S,with no effect

# Variants of: B4
# Conditions: with mare1_human MAPRE1, Q15691
# Chain of mare1_human MAPRE1, Q15691 (Q15691 whole entry): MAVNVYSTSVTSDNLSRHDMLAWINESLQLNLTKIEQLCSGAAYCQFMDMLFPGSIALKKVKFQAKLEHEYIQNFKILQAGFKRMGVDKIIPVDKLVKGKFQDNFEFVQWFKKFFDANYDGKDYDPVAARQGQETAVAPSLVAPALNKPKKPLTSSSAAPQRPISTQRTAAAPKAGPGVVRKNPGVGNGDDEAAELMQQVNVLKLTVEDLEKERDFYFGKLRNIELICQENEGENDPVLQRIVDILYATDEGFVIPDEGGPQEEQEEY
row,Variant,effect of a mutation on the interaction
1,N28S,with no effect

# Variants of: B5
# Conditions: with ppl13_human LGALS14, Q8TCE9
row,Variant,effect of a mutation on the interaction
1,E423G,with no effect

# Variants of: B6
# Conditions: with glcne_human GNE
row,Variant,effect of a mutation on the interaction
1,R74Q,with no effect
2,A115T,with no effect

# Variants of: B7
# Conditions: with uter_human SCGB1A1, P11684
row,Variant,effect of a mutation on the interaction
1,E547A,disrupting interaction strength
